Results on 125 sequences are retold here after the supplement of paper PMC9112550, “Optimization of the antimicrobial peptide Bac7 by deep mutational scanning” (BMC Biology, 2022).

The data set has as its system Escherichia coli TOP10. In words: shrunken log2 fold change of peptide-encoding DNA abundance (4.5 h post-induction vs induction); higher = less antimicrobial activity (less host growth inhibition). The settings on record: time post-induction: 4.5 h; library: site-saturation at positions 5, 18, 19, 20.
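Further: peptides expressed intracellularly from a pBAD plasmid library in pooled LB shake-flask culture, induced with 0.3% L-arabinose, DNA abundance read by NGS, three biological replicates, DESeq2 with apeglm shrinkage.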

For RRIRNRPPRLPRPRPRPRYYPRP, the “shrunken log2 fold change” value was -0.705.
The figure for RRIRSRPPRLPRPRPRPLIKPRP is -0.258; for RRIRSRPPRLPRPRPRPASSPRP it is -0.201.
Take RRIRPRPPRLPRPRPRPPQCPRP: the “shrunken log2 fold change” value was determined as 0.228.
As to RRIRMRPPRLPRPRPRPGQLPRP, the “shrunken log2 fold change” value is 0.0406.
In the case of RRIRQRPPRLPRPRPRPCEHPRP, the “shrunken log2 fold change” value turned out to be 0.0413.
The figure for RRIRFRPPRLPRPRPRPRDNPRP is -0.173.
For RRIRWRPPRLPRPRPRPFMAPRP, the “shrunken log2 fold change” value was -0.121.
The figure for RRIRTRPPRLPRPRPRPMSTPRP is -0.0153.
The same measure for RRIRYRPPRLPRPRPRPPNPPRP: -0.145; for RRIRQRPPRLPRPRPRPNTWPRP: -0.191; for RRIRHRPPRLPRPRPRPRVQPRP: 0.054.
For RRIRVRPPRLPRPRPRPLVQPRP, the “shrunken log2 fold change” value is -0.137.
The figure for RRIRKRPPRLPRPRPRPDFIPRP is -0.209; for RRIRTRPPRLPRPRPRPEIWPRP it is 0.264.
For the sequence RRIRNRPPRLPRPRPRPVITPRP, the “shrunken log2 fold change” value is -0.662.
As to RRIRYRPPRLPRPRPRPAWPPRP, the “shrunken log2 fold change” value was 0.363.
Turning to RRIRSRPPRLPRPRPRPCMIPRP, the “shrunken log2 fold change” value was -0.389.
In the case of RRIRARPPRLPRPRPRPTLDPRP, the “shrunken log2 fold change” value stood at 0.777.
RRIRGRPPRLPRPRPRPWQAPRP: the “shrunken log2 fold change” value amounted to 0.00236.
The same measure for RRIRSRPPRLPRPRPRPVCTPRP: -0.0518.
Take RRIRGRPPRLPRPRPRPHTHPRP: the “shrunken log2 fold change” value was determined as 0.0537.
The figure for RRIRCRPPRLPRPRPRPDGWPRP is 0.378.
Consider RRIRVRPPRLPRPRPRPCKTPRP, for which the “shrunken log2 fold change” value is -0.00208.
With RRIRGRPPRLPRPRPRPAFQPRP, the “shrunken log2 fold change” value is 0.202.
The figure for RRIRERPPRLPRPRPRPWREPRP is 0.127.
As for RRIRDRPPRLPRPRPRPYEIPRP, the “shrunken log2 fold change” value was -0.0176.
In the case of RRIRMRPPRLPRPRPRPEWMPRP, the “shrunken log2 fold change” value came to 0.156.
Regarding RRIRYRPPRLPRPRPRPHIRPRP, the “shrunken log2 fold change” value was -0.206.
The same measure for RRIRVRPPRLPRPRPRPGSSPRP: -0.169; for RRIRIRPPRLPRPRPRPCFRPRP: -0.233.
Regarding RRIRPRPPRLPRPRPRPLWNPRP, the “shrunken log2 fold change” value was -0.0917.
The same measure for RRIRFRPPRLPRPRPRPRAEPRP: 0.363; for RRIRERPPRLPRPRPRPKCLPRP: -0.0209; for RRIRPRPPRLPRPRPRPLETPRP: 0.151.
The figure for RRIRMRPPRLPRPRPRPRFQPRP is 0.268; for RRIRNRPPRLPRPRPRPLQIPRP it is -0.143.
The same measure for RRIRERPPRLPRPRPRPCDGPRP: 0.142; for RRIRMRPPRLPRPRPRPQATPRP: -0.00147; for RRIRRRPPRLPRPRPRPFDPPRP: 0.504.
Regarding RRIRDRPPRLPRPRPRPLSIPRP, the “shrunken log2 fold change” value is -0.0668.
In the case of RRIRERPPRLPRPRPRPFMCPRP, the “shrunken log2 fold change” value was -0.158.
The same measure for RRIRWRPPRLPRPRPRPLFPPRP: 0.0582; for RRIRIRPPRLPRPRPRPNSTPRP: -0.722; for RRIRQRPPRLPRPRPRPWVGPRP: -0.0518.
The figure for RRIRTRPPRLPRPRPRPGMPPRP is -0.0497; for RRIRVRPPRLPRPRPRPPCRPRP it is 2.01; for RRIRDRPPRLPRPRPRPNLPPRP it is -0.0303.
As for RRIRGRPPRLPRPRPRPGTCPRP, the “shrunken log2 fold change” value turned out to be 0.165.
For RRIRTRPPRLPRPRPRPPLVPRP, the “shrunken log2 fold change” value was 0.184.
The same measure for RRIRKRPPRLPRPRPRPWGLPRP: -0.22; for RRIRARPPRLPRPRPRPKKVPRP: 0.708.
Turning to RRIRFRPPRLPRPRPRPNQQPRP, the “shrunken log2 fold change” value was -0.0474.
The figure for RRIRYRPPRLPRPRPRPIDHPRP is -0.0413.
For the sequence RRIRERPPRLPRPRPRPRGLPRP, the “shrunken log2 fold change” value is 0.159.
In the case of RRIRCRPPRLPRPRPRPCSVPRP, the “shrunken log2 fold change” value is -0.177.
For the sequence RRIRDRPPRLPRPRPRPDRLPRP, the “shrunken log2 fold change” value was found to be 0.0401.
The same measure for RRIRPRPPRLPRPRPRPNSDPRP: -0.39; for RRIRLRPPRLPRPRPRPCWHPRP: -0.0884; for RRIRWRPPRLPRPRPRPFLTPRP: 2.56.
Take RRIRDRPPRLPRPRPRPTRKPRP: the “shrunken log2 fold change” value turned out to be 0.385.
On to RRIRWRPPRLPRPRPRPLYCPRP, for which the “shrunken log2 fold change” value is -0.22.
The same measure for RRIRYRPPRLPRPRPRPYYHPRP: -0.283; for RRIRPRPPRLPRPRPRPEKIPRP: -0.0804; for RRIRRRPPRLPRPRPRPCVMPRP: 0.113.
Consider RRIRFRPPRLPRPRPRPDMFPRP, for which the “shrunken log2 fold change” value is -0.0758.
The same measure for RRIRSRPPRLPRPRPRPAWDPRP: 0.281.
For RRIRDRPPRLPRPRPRPQCPPRP, the “shrunken log2 fold change” value was -0.00693.
For RRIRWRPPRLPRPRPRPLKFPRP, the “shrunken log2 fold change” value is -0.121.
The same measure for RRIRQRPPRLPRPRPRPNRFPRP: -0.00894.
The same measure for RRIRWRPPRLPRPRPRPEYLPRP: -0.0854; for RRIRRRPPRLPRPRPRPRTIPRP: 0.134.
As to RRIRCRPPRLPRPRPRPAEMPRP, the “shrunken log2 fold change” value was -0.0594.
The same measure for RRIRKRPPRLPRPRPRPVDFPRP: 0.103; for RRIRCRPPRLPRPRPRPDWKPRP: 0.0808.
In the case of RRIRNRPPRLPRPRPRPQDKPRP, the “shrunken log2 fold change” value came to 0.0859.
The figure for RRIRQRPPRLPRPRPRPDQHPRP is 0.00878.
The same measure for RRIRIRPPRLPRPRPRPWDNPRP: -0.339; for RRIRTRPPRLPRPRPRPANWPRP: 0.0703; for RRIRWRPPRLPRPRPRPCQKPRP: -0.00776.
The figure for RRIRRRPPRLPRPRPRPQRHPRP is -0.0855; for RRIRIRPPRLPRPRPRPYKMPRP it is -0.889; for RRIRGRPPRLPRPRPRPWAVPRP it is -0.142.
Consider RRIRGRPPRLPRPRPRPDIDPRP, for which the “shrunken log2 fold change” value came out at 2.17.
Consider RRIRGRPPRLPRPRPRPIHVPRP, for which the “shrunken log2 fold change” value is -0.315.
Turning to RRIRVRPPRLPRPRPRPMDPPRP, the “shrunken log2 fold change” value is -0.56.
RRIRERPPRLPRPRPRPFVHPRP: the “shrunken log2 fold change” value is -0.435.
The same measure for RRIRTRPPRLPRPRPRPPITPRP: -0.235.
The figure for RRIRKRPPRLPRPRPRPLICPRP is 0.123; for RRIRARPPRLPRPRPRPHKPPRP it is 0.148; for RRIRIRPPRLPRPRPRPICAPRP it is 0.0269.
On to RRIRKRPPRLPRPRPRPKDKPRP, for which the “shrunken log2 fold change” value turned out to be 0.388.
In the case of RRIRIRPPRLPRPRPRPESYPRP, the “shrunken log2 fold change” value amounted to 0.0064.
In the case of RRIRRRPPRLPRPRPRPFNGPRP, the “shrunken log2 fold change” value was found to be 0.0131.
As to RRIRFRPPRLPRPRPRPESYPRP, the “shrunken log2 fold change” value was -0.0666.
The same measure for RRIRSRPPRLPRPRPRPHHSPRP: -0.464; for RRIRKRPPRLPRPRPRPECHPRP: -0.0136.
Turning to RRIRFRPPRLPRPRPRPRFPPRP, the “shrunken log2 fold change” value turned out to be 0.0497.
The figure for RRIRERPPRLPRPRPRPHRKPRP is -0.0945; for RRIRRRPPRLPRPRPRPYSEPRP it is -0.154; for RRIRRRPPRLPRPRPRPKDTPRP it is 0.0485.
For the sequence RRIRMRPPRLPRPRPRPHVKPRP, the “shrunken log2 fold change” value was -0.282.
As for RRIRTRPPRLPRPRPRPDHPPRP, the “shrunken log2 fold change” value is -0.224.
The figure for RRIRWRPPRLPRPRPRPRPTPRP is 0.547.
Consider RRIRIRPPRLPRPRPRPAEQPRP, for which the “shrunken log2 fold change” value was -0.0532.
The same measure for RRIRPRPPRLPRPRPRPFQIPRP: -0.169.
For RRIRIRPPRLPRPRPRPIISPRP, the “shrunken log2 fold change” value was -0.101.
The figure for RRIRFRPPRLPRPRPRPFKTPRP is -0.164; for RRIRVRPPRLPRPRPRPSRQPRP it is -0.0237; for RRIRGRPPRLPRPRPRPDPVPRP it is 0.951.
The same measure for RRIRERPPRLPRPRPRPSNQPRP: -0.841; for RRIRSRPPRLPRPRPRPGEEPRP: 0.499.
As for RRIRWRPPRLPRPRPRPKSTPRP, the “shrunken log2 fold change” value is 0.126.
For the sequence RRIRFRPPRLPRPRPRPRMWPRP, the “shrunken log2 fold change” value amounted to 0.127.
Turning to RRIRLRPPRLPRPRPRPQKLPRP, the “shrunken log2 fold change” value was -0.17.
The figure for RRIRARPPRLPRPRPRPVEWPRP is 0.544; for RRIRDRPPRLPRPRPRPGIGPRP it is 0.76; for RRIRQRPPRLPRPRPRPKVEPRP it is -0.00957.
The same measure for RRIRQRPPRLPRPRPRPCTAPRP: 0.139; for RRIRERPPRLPRPRPRPNLRPRP: 0.0952.
Consider RRIRMRPPRLPRPRPRPVSTPRP, for which the “shrunken log2 fold change” value came out at 1.96.
The figure for RRIRARPPRLPRPRPRPWQYPRP is -0.123; for RRIRQRPPRLPRPRPRPWCDPRP it is -0.191.
On to RRIRARPPRLPRPRPRPVYMPRP, for which the “shrunken log2 fold change” value was -0.436.
With RRIRYRPPRLPRPRPRPRHGPRP, the “shrunken log2 fold change” value was -0.0607.
